Data on seven molecules can be found in publication PMC4883009 (Biochemistry, 2016).

In assay [1] the test system is bsSecA783 F652-GS(10)-PhoAss Cys22-IAEDANS. The assay is described as follows: Signal peptide competition-binding assay by FRET. The arrangement: species or system B. subtilis. As to conditions: 5-fold molar excess of unlabeled SP22; data not shown.
The test system of assay [2] is bsSecA783 F652-GS(5)-KRRLamBss Cys29-IAEDANS. The assay is described as follows: Signal peptide competition-binding assay by FRET. More on the design: species or system B. subtilis. Conditions: 5-fold molar excess of unlabeled SP22; data not shown.
Assay [3] has as its target E. coli alkaline phosphatase signal peptide SP22, IANBD-labeled (E. coli). The assay is described as follows: fluorescence polarisation. Background: Fluorescence polarisation rises when a labelled molecule tumbles more slowly, as on binding a larger partner.
The subject of assay [4] is IANBD-labeled SP22. The assay is described as follows: SecA-signal peptide binding affinity by fluorescence anisotropy. More on the design: species or system E. coli.

MKQSTIALALLPLLFTPVTKAC-NH2 [SP22]: the “reduction of energy transfer efficiency” value in assay [1] and in assay [2] was “approximately 50%” each time. As usually defined, the Kd is the constant that tells how readily two partners part at equilibrium. Low readings indicate tighter binding, high ones weaker binding. For the molecule “bsSecA783-KRRLamBss (from UniProt P28366 1-783)”, in assay [3], the dissociation constant (Kd) was 13 µM. Turning to “bsSecA783-PhoAss (from UniProt P28366 1-783)”, the Kd in assay [3] stood at 4.5 µM. For the molecule “bsSecA841 (from UniProt P28366 1-841) (enzyme)”, the Kd in assay [3] was 1.9 µM. Same read-out and setting: the value for “bsSecA841-KRRLamBss (from UniProt P28366 1-841)” was 14 µM; that for “bsSecA841-PhoAss (from UniProt P28366 1-841)” was 4.6 µM.

B1: bsSecA783: carboxy-terminally truncated B. subtilis SecA lacking the CTL domain (protein, UniProt P28366 1-783, looked up, fragment)
chain: MLGILNKMFDPTKRTLNRYEKIANDIDAIRGDYENLSDDALKHKTIEFKERLEKGATTDDLLVEAFAVVREASRRVTGMFPFKVQLMGGVALHDGNIAEMKTGEGKTLTSTLPVYLNALTGKGVHVVTVNEYLASRDAEQMGKIFEFLGLTVGLNLNSMSKDEKREAYAADITYSTNNELGFDYLRDNMVLYKEQMVQRPLHFAVIDEVDSILIDEARTPLIISGQAAKSTKLYVQANAFVRTLKAEKDYTYDIKTKAVQLTEEGMTKAEKAFGIDNLFDVKHVALNHHINQALKAHVAMQKDVDYVVEDGQVVIVDSFTGRLMKGRRYSEGLHQAIEAKEGLEIQNESMTLATITFQNYFRMYEKLAGMTGTAKTEEEEFRNIYNMQVVTIPTNRPVVRDDRPDLIYRTMEGKFKAVAEDVAQRYMTGQPVLVGTVAVETSELISKLLKNKGIPHQVLNAKNHEREAQIIEEAGQKGAVTIATNMAGRGTDIKLGEGVKELGGLAVVGTERHESRRIDNQLRGRSGRQGDPGITQFYLSMEDELMRRFGAERTMAMLDRFGMDDSTPIQSKMVSRAVESSQKRVEGNNFDSRKQLLQYDDVLRQQREVIYKQRFEVIDSENLREIVENMIKSSLERAIAAYTPREELPEEWKLDGLVDLINTTYLDEGALEKSDIFGKEPDEMLELIMDRIITKYNEKEEQFGKEQMREFEKVIVLRAVDSKWMDHIDAMDQLRQGIHLRAYAQTNPLREYQMEGFAMFEHMIESIEDEVAKFVMKAEIENN
Take B1: the “higher affinity for SP22 compared to full-length bsSecA841” value in assay [4] is “approximately 4 fold”.
